The target of assay [1] is T1, Gal4NLBD589A (Gal4 DNA-binding domain fused to the Nurr1 ligand binding domain with alanine for aspartic acid … (UniProt P04386 1-147)).
T1 construct: also called pPC97-NLBD589A; pPC97NLBD589A
The assay can be described thus: yeast two-hybrid, empty prey vector control, growth on -Leu/-Trp/-His (X-gal staining: White).

Assay [2] deals with T2, pPC86-RXR (Gal4 activation domain fused to full-length human RXRα) (human, UniProt P19793 1-462).
T2 construct: also called pPC89RXR
T2 sequence (looked up): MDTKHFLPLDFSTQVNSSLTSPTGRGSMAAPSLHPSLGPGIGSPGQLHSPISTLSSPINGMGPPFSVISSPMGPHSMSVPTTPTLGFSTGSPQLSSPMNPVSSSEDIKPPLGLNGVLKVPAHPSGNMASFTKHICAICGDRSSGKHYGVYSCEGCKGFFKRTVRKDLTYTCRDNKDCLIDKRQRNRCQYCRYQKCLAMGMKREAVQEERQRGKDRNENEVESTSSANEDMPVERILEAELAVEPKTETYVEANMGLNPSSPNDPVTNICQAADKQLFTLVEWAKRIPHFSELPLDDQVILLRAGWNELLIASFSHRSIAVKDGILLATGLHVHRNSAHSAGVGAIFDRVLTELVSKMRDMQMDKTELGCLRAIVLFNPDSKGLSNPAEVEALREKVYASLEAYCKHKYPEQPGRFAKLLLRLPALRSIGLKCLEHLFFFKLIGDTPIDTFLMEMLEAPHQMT
The assay can be described thus: yeast two-hybrid, growth on -Leu/-Trp/-His (X-gal staining: White).

Assay [3] addresses T3, VP16-NuIP (HSV VP16 activation domain fused to full-length NuIP) (mouse, UniProt Q8BPQ7 1-1093).
T3 construct: also called pVP16NuIP
T3 sequence: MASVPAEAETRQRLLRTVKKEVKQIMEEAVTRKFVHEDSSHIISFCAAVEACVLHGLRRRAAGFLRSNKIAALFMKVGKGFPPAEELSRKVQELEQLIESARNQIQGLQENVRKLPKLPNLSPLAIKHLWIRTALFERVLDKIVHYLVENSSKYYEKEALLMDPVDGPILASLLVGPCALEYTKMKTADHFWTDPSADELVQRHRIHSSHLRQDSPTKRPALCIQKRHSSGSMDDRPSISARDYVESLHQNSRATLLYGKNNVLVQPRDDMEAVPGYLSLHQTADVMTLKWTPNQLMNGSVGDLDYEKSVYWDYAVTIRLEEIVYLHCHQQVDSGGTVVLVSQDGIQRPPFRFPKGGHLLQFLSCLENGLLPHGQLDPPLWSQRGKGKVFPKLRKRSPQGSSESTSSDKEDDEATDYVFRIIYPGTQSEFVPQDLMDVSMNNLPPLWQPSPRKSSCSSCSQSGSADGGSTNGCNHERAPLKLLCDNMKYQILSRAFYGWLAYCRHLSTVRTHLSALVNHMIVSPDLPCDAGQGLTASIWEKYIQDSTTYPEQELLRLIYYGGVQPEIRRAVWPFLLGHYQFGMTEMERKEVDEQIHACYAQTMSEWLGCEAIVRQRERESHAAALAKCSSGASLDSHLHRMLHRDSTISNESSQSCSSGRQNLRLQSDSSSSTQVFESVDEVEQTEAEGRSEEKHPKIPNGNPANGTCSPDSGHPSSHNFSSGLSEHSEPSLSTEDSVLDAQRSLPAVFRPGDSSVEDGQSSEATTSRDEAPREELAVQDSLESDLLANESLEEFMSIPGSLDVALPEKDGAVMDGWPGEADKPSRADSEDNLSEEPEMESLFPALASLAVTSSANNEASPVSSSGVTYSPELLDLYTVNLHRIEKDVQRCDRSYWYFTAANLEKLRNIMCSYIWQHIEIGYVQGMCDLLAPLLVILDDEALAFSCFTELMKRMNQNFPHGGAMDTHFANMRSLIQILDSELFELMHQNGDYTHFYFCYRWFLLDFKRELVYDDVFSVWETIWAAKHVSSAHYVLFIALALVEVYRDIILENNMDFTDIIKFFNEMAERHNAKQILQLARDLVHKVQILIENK
The assay can be described thus: mammalian two-hybrid, luciferase reporter, MN9D cells.

B1: Gal4 activation domain alone (empty pPC86 vector) (other, UniProt P04386 768-881, looked up)
chain: ANFNQSGNIADSSLSFTFTNSSNGPNLITTQTNSQALSQPIASSNVHDNFMNNEITASKIDDGNNSKPLSPGWTDQTAYNAFGITTGMFNTTTMDDVYNYLFDDEDTPPNPKKE
notes: Empty prey vector control in yeast two-hybrid; also called pPC89
Turning to B1, the binding result in assay [1] is “no binding”.

B2: Gal4NLBDΔ583 (Gal4 DNA-binding domain fused to the Nurr1 ligand binding domain with the AF2 domain deleted) (other)
chain: DPSPPSPPVSLISALVRAHVDSNPAMTSLDYSRFQANPDYQMSGDDTQHIQQFYDLLTGSMEIIRGWAEKIPGFADLPKADQDLLFESAFLELFVLRLAYRSNPVEGKLIFCNGVVLHRLQCVRGFGEWIDSIVEFSSNLQNMNIDISAFSCIAALAMVTERHGLKEPKRVEELQNKIVNCLKDHVTFNNGGLNRPNYLSKLLGKLPELRTLCTQGLQRIFYLKLEDLVP
notes: Used under the same name as yeast bait (pPC97) and in the mammalian two-hybrid assay in MN9D cells; also called Gal4NLDBA583; Gal4NLBDp583
Consider B2, for which the binding result is “no binding” in assay [2] and “binds” in assay [3].

The values above are taken from patent US20110268748A1 (UNIVERSITY OF ROCHESTER, published 2011).
